PMC7083938
Values joined by “and” are separate entries in the source; they are usually repeats but may differ in a detail not shown here. Equal entries are not always repeated. Where two headings read alike, the source gives them in different places.

Experiments:
[1] = target: biotinylated mouse Robo3 FN1–3 (Avi-tagged) (mouse) (UniProt Q9Z2I4); experiment: SPR; biotinylated mRobo3 FN1–3 captured on an SA chip (Biacore); mNELL2 EGF1–6 WT and mutants as analyte; 25 °C, 10 mM HEPES pH 7.2, 150 mM NaCl, 0.05% Tween-20, 0.1% BSA; 1:1 Langmuir isotherm
mRobo3 FN1-3 (mouse) = experiment: SPR; biotinylated mRobo3 FN1-3 on a Biacore SA chip; mNELL2 EGF1-6 WT and mutants as analytes over the same channel; 20 s 10 mM EDTA pH 8, 150 mM NaCl between runs; 25 °C, 10 mM HEPES pH 7.2, 150 mM NaCl, 0.05% Tween-20, 0.1% BSA; equilibrium, 1:1 Langmuir
[2] = target: full-ectodomain Robo surface (SPR with full-length NELL2 as analyte); experiment: SPR; mRobo3 ECD (167 RU) and mRobo1^Robo3-FN1 ECD (177 RU) biotinylated with NHS-Biotin and captured on a Biacore Series S SA chip; full-length mNELL2 as analyte; 1:1 Langmuir isotherm with a linear nonspecific-binding term; regeneration with 10 mM EDTA
[3] = target: mNELL2 (full length) (mouse); experiment: SPR; mNELL2 or mNELL2ΔCC (100 RU each, NHS-biotin) on a Biacore Series S SA chip; mRobo3 ECD or mRobo3 FN1 as analyte; regeneration with 10 mM EDTA; equilibrium analysis
mNELL2ΔCC (mouse) [4] = experiment: as above
mRobo1 FN1-3 (mouse) = mRobo1 FN1-3 (mouse) (UniProt O89026); experiment: SPR; mRobo1 FN1-3 (NHS-biotin on the N-terminal amine, 315 RU) on a Biacore SA chip; mNELL2 EGF1-6 as analyte; 25 °C, 10 mM HEPES pH 7.2, 150 mM NaCl, 0.05% Tween-20, 0.1% BSA; 1:1 Langmuir
[5] = target: mRobo1Robo3-FN1 ECD chimera (mouse) (UniProt O89026); experiment: SPR; mRobo3 ECD (167 RU) or mRobo1Robo3-FN1 ECD (177 RU), NHS-biotin, on a Biacore Series S SA chip; mNELL2 full length or mNELL2 EGF1-6 as analyte; regeneration with 10 mM EDTA; equilibrium, 1:1 model with a linear non-specific binding term
[6] = target: mRobo3 ectodomain (mouse); experiment: as above
[7] = target: mNELL2 (full length) (mouse); experiment: SEC-MALS; Superose 6 Increase 10/300 in HBS (10 mM HEPES pH 7.2, 150 mM NaCl), Wyatt HELEOS II
[8] = target: mRobo1 ectodomain (mouse) (UniProt O89026); experiment: SPR; mRobo1 ectodomain on a CM5 chip by random amine coupling (~1,200 RU); mNELL2 as analyte; 25 °C, 10 mM HEPES pH 7.2, 150 mM NaCl, 0.05% Tween-20, 0.1% BSA; KD from equilibrium responses assuming 50 to 100% active surface
[9] = target: mRobo1 ectodomain (mouse) (UniProt O89026); experiment: as above; remark: listed apart in the source
[10] = target: NELL2, full length (Supplementary Fig. 9c; species not stated) (not stated (human or mouse cDNA cloned)) (UniProt Q99435); experiment: non-reducing SDS-PAGE; NELL2 and NELL2ΔCC on non-reducing (-DTT) and reducing (+DTT) SDS-PAGE; size from ladder standards
[11] = target: mNELL2 (full length) (mouse); experiment: SEC; mNELL2 with excess mRobo3 FN1 on Superose 6 10/300; complex fractions quantified by fluorescent anti-His western blot against 1:1 standards
mNELL2ΔCC (mouse) [12] = experiment: SPR; mNELL2 or mNELL2ΔCC (100 RU each, NHS-biotin) on a Biacore Series S SA chip; mRobo3 ECD or mRobo3 FN1 as analyte; regeneration with 10 mM EDTA; equilibrium analysis; remark: listed apart in the source

Sequence of biotinylated mouse Robo3 FN1–3 (Avi-tagged) (mouse) (Q9Z2I4 558-869): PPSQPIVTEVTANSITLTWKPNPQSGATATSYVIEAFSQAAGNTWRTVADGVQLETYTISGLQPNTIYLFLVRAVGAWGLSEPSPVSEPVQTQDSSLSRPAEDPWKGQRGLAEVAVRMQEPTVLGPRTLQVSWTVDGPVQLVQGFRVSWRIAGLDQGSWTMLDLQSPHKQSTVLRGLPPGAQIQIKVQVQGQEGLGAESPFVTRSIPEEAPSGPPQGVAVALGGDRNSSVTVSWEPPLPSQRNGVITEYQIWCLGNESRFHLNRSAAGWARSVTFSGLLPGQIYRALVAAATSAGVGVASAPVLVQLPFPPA
Sequence of mRobo1 ectodomain (mouse) (O89026 30-840): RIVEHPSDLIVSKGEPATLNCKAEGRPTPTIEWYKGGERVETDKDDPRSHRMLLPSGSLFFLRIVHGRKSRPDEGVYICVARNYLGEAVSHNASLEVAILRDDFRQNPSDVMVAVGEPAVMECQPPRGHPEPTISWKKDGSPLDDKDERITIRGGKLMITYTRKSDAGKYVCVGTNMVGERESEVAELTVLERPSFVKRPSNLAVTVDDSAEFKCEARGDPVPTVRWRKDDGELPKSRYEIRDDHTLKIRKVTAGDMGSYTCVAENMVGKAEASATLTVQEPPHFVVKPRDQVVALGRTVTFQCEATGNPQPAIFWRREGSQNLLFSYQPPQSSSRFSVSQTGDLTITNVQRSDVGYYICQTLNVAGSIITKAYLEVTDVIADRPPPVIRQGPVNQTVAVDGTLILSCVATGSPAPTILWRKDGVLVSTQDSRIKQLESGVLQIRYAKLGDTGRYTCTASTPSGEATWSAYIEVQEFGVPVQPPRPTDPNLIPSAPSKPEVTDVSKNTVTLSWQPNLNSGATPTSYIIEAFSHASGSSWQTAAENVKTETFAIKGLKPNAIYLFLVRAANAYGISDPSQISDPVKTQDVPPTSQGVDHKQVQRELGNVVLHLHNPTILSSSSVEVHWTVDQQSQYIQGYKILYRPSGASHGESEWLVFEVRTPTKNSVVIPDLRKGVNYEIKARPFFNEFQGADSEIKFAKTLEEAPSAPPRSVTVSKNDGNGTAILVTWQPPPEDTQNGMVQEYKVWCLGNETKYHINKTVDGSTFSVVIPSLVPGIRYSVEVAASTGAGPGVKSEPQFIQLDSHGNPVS
Sequence of full-length mouse NELL2 (Q61220 25-819): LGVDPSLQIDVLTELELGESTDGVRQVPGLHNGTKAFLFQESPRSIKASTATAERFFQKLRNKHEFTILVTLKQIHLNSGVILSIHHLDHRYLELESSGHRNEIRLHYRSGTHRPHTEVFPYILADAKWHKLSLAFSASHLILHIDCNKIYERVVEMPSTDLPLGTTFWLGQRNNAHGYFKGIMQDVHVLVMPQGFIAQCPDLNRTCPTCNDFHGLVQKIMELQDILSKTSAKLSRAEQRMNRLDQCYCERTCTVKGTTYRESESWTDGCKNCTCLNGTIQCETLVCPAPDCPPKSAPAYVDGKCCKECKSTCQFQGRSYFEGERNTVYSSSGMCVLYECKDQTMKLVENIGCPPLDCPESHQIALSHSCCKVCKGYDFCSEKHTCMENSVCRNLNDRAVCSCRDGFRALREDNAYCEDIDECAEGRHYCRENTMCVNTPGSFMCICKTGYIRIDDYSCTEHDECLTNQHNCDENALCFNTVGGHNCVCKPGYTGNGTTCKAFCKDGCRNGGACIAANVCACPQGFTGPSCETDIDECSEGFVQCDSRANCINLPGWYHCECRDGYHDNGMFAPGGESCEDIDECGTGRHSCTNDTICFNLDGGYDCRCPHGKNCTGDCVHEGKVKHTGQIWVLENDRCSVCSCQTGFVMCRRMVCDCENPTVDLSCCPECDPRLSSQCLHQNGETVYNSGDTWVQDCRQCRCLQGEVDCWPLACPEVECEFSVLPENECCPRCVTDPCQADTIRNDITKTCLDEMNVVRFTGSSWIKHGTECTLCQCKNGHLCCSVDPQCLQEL
Sequence of mRobo1 FN1-3 (mouse) (O89026 519-840): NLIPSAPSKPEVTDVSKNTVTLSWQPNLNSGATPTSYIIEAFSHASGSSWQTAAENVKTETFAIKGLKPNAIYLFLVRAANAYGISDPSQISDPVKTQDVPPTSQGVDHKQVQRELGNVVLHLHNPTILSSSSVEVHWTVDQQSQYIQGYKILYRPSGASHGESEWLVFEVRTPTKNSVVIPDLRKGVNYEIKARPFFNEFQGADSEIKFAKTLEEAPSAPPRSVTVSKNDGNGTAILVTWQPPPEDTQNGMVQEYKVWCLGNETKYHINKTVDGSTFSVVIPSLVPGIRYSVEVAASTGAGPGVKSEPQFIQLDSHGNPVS

mouse NELL2 EGF1–6 L498A/F500A (domain or fragment)
Kd [1]: > 100000 nM
fold reduction of affinity against wild-type mNELL2 [1]: 500 fold

mNELL2 EGF1-6 V509A (domain or fragment)
Kd (mRobo3 FN1-3 (mouse)): 1700 nM

mouse NELL2 EGF1–6 R452A (domain or fragment)
Kd [1]: 1700 nM
fold reduction of affinity against wild-type mNELL2 [1]: 2.4 fold

full-length mouse NELL2 (from UniProt Q61220 25-819) (ligand)
Kd [2]: 500 to 1000 nM

mRobo3 ectodomain (domain or fragment)
Kd [3]: 890 nM
Kd (mNELL2ΔCC (mouse) [4]): 1800 nM

mNELL2 EGF1-6 R448A/Y450A (domain or fragment)
Kd (mRobo3 FN1-3 (mouse)): 87000 nM

mNELL2 EGF1-6 WT (domain or fragment)
Kd (mRobo1 FN1-3 (mouse)): 13800 nM
Kd [5]: 1700 nM
Kd [6]: 1700 nM
Kd (mRobo3 FN1-3 (mouse)): 710 nM

mouse NELL2 EGF1–6 R448A/Y450A (domain or fragment)
fold reduction of affinity against wild-type mNELL2 [1]: 120 fold

mNELL2 (full length) (ligand)
stoichiometry N [7]: 3
Kd [8]: > 100000 nM
Kd [9]: 350000 nM
Kd [5]: 470 nM
Kd [6]: 940 nM

mNELL2 EGF1-6 R452A (domain or fragment)
Kd (mRobo3 FN1-3 (mouse)): 1700 nM

mouse NELL2 EGF1–6 V509A (domain or fragment)
Kd [1]: 1700 nM
fold reduction of affinity against wild-type mNELL2 [1]: 2.4 fold

NELL2, full length (Supplementary Fig. 9c; species not stated) (from UniProt Q99435 22-816) (ligand)
stoichiometry N [10]: 3

mRobo3 FN1 (domain or fragment)
stoichiometry N (mNELL2:mRobo3 FN1 (molar ratio)) [11]: 1.16
Kd (mNELL2ΔCC (mouse) [12]): 710 nM and 890 nM
Kd [3]: 510 nM
Kd (mNELL2ΔCC (mouse) [4]): 720 nM
